Source: patent US20180044374A1
Several values for one entry are separate records, joined by “and”; a condition that tells them apart may be missing. Identical values can stand only once.

Experiments:
[1] = biological target: human polyclonal IgG (Gammanorm) (human); test: dynamic binding capacity; matrix A20, ligand […]
[2] = biological target: human polyclonal IgG (Gammanorm) (human); test: dynamic binding capacity; matrix A27, ligand […]
[3] = biological target: human polyclonal IgG (Gammanorm) (human); test: dynamic binding capacity; matrix A32, ligand […]
[4] = biological target: human polyclonal IgG (Gammanorm) (human); test: dynamic binding capacity; matrix A42, ligand […]
[5] = biological target: human polyclonal IgG (Gammanorm) (human); test: dynamic binding capacity; matrix H40, ligand […]
[6] = biological target: human polyclonal IgG (Gammanorm) (human); test: dynamic binding capacity; matrix A62b, ligand […]; conditions: ligand content 5.2 mg/ml
[7] = biological target: human polyclonal IgG (Gammanorm) (human); test: dynamic binding capacity; matrix A65b, ligand […]
[8] = biological target: human polyclonal IgG (Gammanorm) (human); test: dynamic binding capacity; matrix B5, ligand 6.3 mg/ml
[9] = biological target: human polyclonal IgG (Gammanorm) (human); test: dynamic binding capacity; matrix B5, ligand 9.6 mg/ml
[10] = biological target: human polyclonal IgG (Gammanorm) (human); test: dynamic binding capacity; matrix C3, ligand 9.0 mg/ml
[11] = biological target: human polyclonal IgG (Gammanorm) (human); test: dynamic binding capacity; matrix I1, ligand 6.1 mg/ml
[12] = biological target: human polyclonal IgG (Gammanorm) (human); test: dynamic binding capacity; matrix A18, ligand 8.2 mg/ml
[13] = biological target: human polyclonal IgG (Gammanorm) (human); test: dynamic binding capacity; matrix A20, ligand 7.3 mg/ml
[14] = biological target: human polyclonal IgG (Gammanorm) (human); test: dynamic binding capacity; matrix A27, ligand 7.5 mg/ml
[15] = biological target: human polyclonal IgG (Gammanorm) (human); test: dynamic binding capacity; matrix A33, ligand 7.3 mg/ml
[16] = biological target: human polyclonal IgG (Gammanorm) (human); test: dynamic binding capacity; matrix A38, ligand 7.5 mg/ml
[17] = biological target: human polyclonal IgG (Gammanorm) (human); test: dynamic binding capacity; matrix A40, ligand 6.1 mg/ml
[18] = biological target: human polyclonal IgG (Gammanorm) (human); test: dynamic binding capacity; matrix C1, ligand 10.8 mg/ml
[19] = biological target: human polyclonal IgG (Gammanorm) (human); test: dynamic binding capacity; matrix C2, ligand 10.5 mg/ml
[20] = biological target: human polyclonal IgG (Gammanorm) (human); test: dynamic binding capacity; matrix H40, ligand 9.1 mg/ml
[21] = biological target: human polyclonal IgG (Gammanorm) (human); test: dynamic binding capacity; matrix I1, ligand 11.2 mg/ml
[22] = biological target: human polyclonal IgG (Gammanorm) (human); test: dynamic binding capacity; matrix A18, ligand 13.4 mg/ml
[23] = biological target: human polyclonal IgG (Gammanorm) (human); test: dynamic binding capacity; matrix A28, ligand 15.8 mg/ml
[24] = biological target: human polyclonal IgG (Gammanorm) (human); test: dynamic binding capacity; matrix A33, ligand 7.33 mg/ml
[25] = biological target: human polyclonal IgG (Gammanorm) (human); test: dynamic binding capacity; matrix A38, ligand 7.45 mg/ml
[26] = biological target: human polyclonal IgG (Gammanorm) (human); test: dynamic binding capacity; matrix A39, ligand 10.5 mg/ml
[27] = biological target: human polyclonal IgG (Gammanorm) (human); test: dynamic binding capacity; matrix A39, ligand 6.96 mg/ml
[28] = biological target: human polyclonal IgG (Gammanorm) (human); test: dynamic binding capacity; matrix A40, ligand 13.2 mg/ml
[29] = biological target: human polyclonal IgG (Gammanorm) (human); test: dynamic binding capacity; matrix A62a, ligand 6.4 mg/ml
[30] = biological target: human polyclonal IgG (Gammanorm) (human); test: dynamic binding capacity; matrix A63a, ligand 6.1 mg/ml
[31] = biological target: human polyclonal IgG (Gammanorm) (human); test: dynamic binding capacity; matrix A63a, ligand 6.6 mg/ml
[32] = biological target: human polyclonal IgG (Gammanorm) (human); test: dynamic binding capacity; matrix A65a, ligand 6.6 mg/ml
[33] = biological target: human polyclonal IgG (Gammanorm) (human); test: dynamic binding capacity; matrix A38, ligand 11.34 mg/ml
[34] = biological target: human polyclonal IgG (Gammanorm) (human); test: dynamic binding capacity; matrix A39, ligand 10.48 mg/ml
[35] = biological target: human polyclonal IgG (Gammanorm) (human); test: dynamic binding capacity; matrix A40, ligand 13.15 mg/ml
[36] = biological target: human polyclonal IgG (Gammanorm) (human); test: dynamic binding capacity; matrix A65a, ligand 13.1 mg/ml
[37] = biological target: human polyclonal IgG (Gammanorm) (human); test: dynamic binding capacity; ligand 16 mg/ml, before 1 M NaOH
[38] = biological target: human polyclonal IgG (Gammanorm) (human); test: dynamic binding capacity; ligand 20 mg/ml, before 1 M NaOH

For “Zvar(Q9A, N11E, Q40V, A42K, N43A, L44I)4 (designed binder)”, which Qb10% 2.4 min [1] is on record?
Its Qb10% 2.4 min is 49 mg/mL.

What about the Qb10% 6 min [1] of the same substance?
The Qb10% 6 min was 67 mg/mL.

And the Qb10% 2.4 min [2]?
The Qb10% 2.4 min was 24.8 mg/mL.

What about the Qb10% 6 min [2] of the same substance?
The Qb10% 6 min was 55.6 mg/mL.

And the Qb10% 2.4 min [3]?
Its Qb10% 2.4 min is 40 mg/mL.

What about the Qb10% 6 min [3] of the same substance?
The Qb10% 6 min was 57 mg/mL.

What about the Qb10% 2.4 min [4] of the same substance?
Its Qb10% 2.4 min is 32.2 mg/mL.

And the Qb10% 6 min [4]?
Its Qb10% 6 min is 57.8 mg/mL.

What about the Qb10% 2.4 min [5] of the same substance?
The Qb10% 2.4 min was 47 mg/mL.

What about the Qb10% 6 min [5] of the same substance?
The Qb10% 6 min was 52 mg/mL.

What about the Qb10% 2.4 min [6] of the same substance?
Its Qb10% 2.4 min is 40 mg/mL.

What about the Qb10% 2.4 min [7] of the same substance?
Its Qb10% 2.4 min is 42 mg/mL.

And the Qb10% 6 min [7]?
Its Qb10% 6 min is 46 mg/mL.

And the Qb10% 2.4 min [8]?
Its Qb10% 2.4 min is 32 mg/mL.

What about the Qb10% 6 min [8] of the same substance?
The Qb10% 6 min was 38 mg/mL.

What about the Qb10% 2.4 min [9] of the same substance?
The Qb10% 2.4 min was 45 mg/mL.

And the Qb10% 6 min [9]?
The Qb10% 6 min was 47 mg/mL.

And the Qb10% 2.4 min [10]?
Its Qb10% 2.4 min is 49 mg/mL.

And the Qb10% 6 min [10]?
The Qb10% 6 min was 62 mg/mL.

What about the Qb10% 2.4 min [11] of the same substance?
Its Qb10% 2.4 min is 45 mg/mL.

What about the Qb10% 6 min [11] of the same substance?
Its Qb10% 6 min is 51 mg/mL.

And the Qb10% 2.4 min [12]?
The Qb10% 2.4 min was 52 mg/mL.

And the Qb10% 6 min [12]?
The Qb10% 6 min was 59 mg/mL.

And the Qb10% 2.4 min [13]?
Its Qb10% 2.4 min is 45 mg/mL and 45.1 mg/mL.

And the Qb10% 6 min [13]?
The Qb10% 6 min was 57 mg/mL and 57.2 mg/mL.

And the Qb10% 2.4 min [14]?
The Qb10% 2.4 min was 29.2 mg/mL.

And the Qb10% 6 min [14]?
Its Qb10% 6 min is 48.7 mg/mL.

And the Qb10% 2.4 min [15]?
Its Qb10% 2.4 min is 49 mg/mL.

What about the Qb10% 6 min [15] of the same substance?
Its Qb10% 6 min is 56 mg/mL.

And the Qb10% 2.4 min [16]?
Its Qb10% 2.4 min is 44 mg/mL.

And the Qb10% 6 min [16]?
The Qb10% 6 min was 58 mg/mL.

What about the Qb10% 2.4 min [17] of the same substance?
The Qb10% 2.4 min was 49 mg/mL.

And the Qb10% 6 min [17]?
The Qb10% 6 min was 59 mg/mL.

What about the Qb10% 2.4 min [18] of the same substance?
The Qb10% 2.4 min was 43 mg/mL.

And the Qb10% 6 min [18]?
The Qb10% 6 min was 60 mg/mL.

What about the Qb10% 2.4 min [19] of the same substance?
The Qb10% 2.4 min was 42 mg/mL.

What about the Qb10% 6 min [19] of the same substance?
The Qb10% 6 min was 57 mg/mL.

And the Qb10% 2.4 min [20]?
Its Qb10% 2.4 min is 52 mg/mL.

What about the Qb10% 6 min [20] of the same substance?
The Qb10% 6 min was 67 mg/mL.

And the Qb10% 2.4 min [21]?
The Qb10% 2.4 min was 57 mg/mL.

And the Qb10% 6 min [21]?
Its Qb10% 6 min is 68 mg/mL.

What about the Qb10% 6 min [22] of the same substance?
Its Qb10% 6 min is 63 mg/mL.

What about the Qb10% 2.4 min [23] of the same substance?
The Qb10% 2.4 min was 37 mg/mL.

What about the Qb10% 6 min [23] of the same substance?
Its Qb10% 6 min is 67 mg/mL.

What about the Qb10% 2.4 min [24] of the same substance?
The Qb10% 2.4 min was 48.7 mg/mL.

What about the Qb10% 6 min [24] of the same substance?
Its Qb10% 6 min is 55.8 mg/mL.

What about the Qb10% 2.4 min [25] of the same substance?
Its Qb10% 2.4 min is 44.4 mg/mL.

And the Qb10% 6 min [25]?
Its Qb10% 6 min is 58.2 mg/mL.

And the Qb10% 2.4 min [26]?
The Qb10% 2.4 min was 44 mg/mL.

What about the Qb10% 6 min [26] of the same substance?
The Qb10% 6 min was 65 mg/mL.

What about the Qb10% 2.4 min [27] of the same substance?
Its Qb10% 2.4 min is 41.9 mg/mL.

And the Qb10% 6 min [27]?
Its Qb10% 6 min is 54.7 mg/mL.

What about the Qb10% 2.4 min [28] of the same substance?
The Qb10% 2.4 min was 57 mg/mL.

What about the Qb10% 6 min [28] of the same substance?
Its Qb10% 6 min is 71 mg/mL.

What about the Qb10% 2.4 min [29] of the same substance?
The Qb10% 2.4 min was 43 mg/mL.

What about the Qb10% 6 min [29] of the same substance?
Its Qb10% 6 min is 45 mg/mL.

What about the Qb10% 2.4 min [30] of the same substance?
The Qb10% 2.4 min was 39 mg/mL.

And the Qb10% 6 min [30]?
The Qb10% 6 min was 44 mg/mL.

What about the Qb10% 2.4 min [31] of the same substance?
Its Qb10% 2.4 min is 40 mg/mL.

What about the Qb10% 6 min [31] of the same substance?
The Qb10% 6 min was 44 mg/mL.

And the Qb10% 2.4 min [32]?
Its Qb10% 2.4 min is 42 mg/mL.

What about the Qb10% 6 min [32] of the same substance?
Its Qb10% 6 min is 47 mg/mL.

And the Qb10% 2.4 min [33]?
The Qb10% 2.4 min was 48.1 mg/mL.

And the Qb10% 6 min [33]?
The Qb10% 6 min was 72.8 mg/mL.

What about the Qb10% 2.4 min [34] of the same substance?
The Qb10% 2.4 min was 44.4 mg/mL.

What about the Qb10% 6 min [34] of the same substance?
Its Qb10% 6 min is 64.8 mg/mL.

And the Qb10% 2.4 min [35]?
Its Qb10% 2.4 min is 56.9 mg/mL.

And the Qb10% 6 min [35]?
The Qb10% 6 min was 71.1 mg/mL.

What about the Qb10% 2.4 min [36] of the same substance?
Its Qb10% 2.4 min is 56 mg/mL.

What about the Qb10% 6 min [36] of the same substance?
The Qb10% 6 min was 64 mg/mL.

What about the Qb10%, 6 min, before incubation [37] of the same substance?
The Qb10%, 6 min, before incubation was 73 mg/mL.

And the Qb10%, 6 min, before incubation [38]?
Its Qb10%, 6 min, before incubation is 73 mg/mL.
